Assay results reported in article doi:10.1101/2023.06.21.545551.

Target: MYC(352–437):MAX(22–102) heterodimer (human) (UniProt P61244)
Experiment: NMR titration

Chain of MYC(352–437):MAX(22–102) heterodimer (human) (P61244 whole entry, looked up, tested part not stated, one chain of several): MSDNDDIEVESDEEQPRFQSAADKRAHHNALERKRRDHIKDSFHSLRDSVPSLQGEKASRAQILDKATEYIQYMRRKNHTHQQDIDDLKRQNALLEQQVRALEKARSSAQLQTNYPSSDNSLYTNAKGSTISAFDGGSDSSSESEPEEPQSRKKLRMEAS

Kd: 7 µM
Substance: MYC(11–34), Mb0 peptide
